Test results from the supplement of paper PMC5998384.

Tests used:
HeLa Kyoto [1] = assay: solubility in G1/S (NP-40 vs SDS abundance) (log2 ratio); higher = more soluble; settings: cell cycle stage: G1/S
HeLa Kyoto [2] = assay: solubility change mitosis vs G1/S (difference of NP-40 vs SDS log2 ratios) (log2 ratio difference); higher = more soluble in mitosis
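Wherever solubility change mitosis vs G1/S (difference of NP-40 vs SDS log2 ratios) is given: synchronized HeLa Kyoto cells (double thymidine block for G1/S, nocodazole release for mitosis), protein amounts in NP-40 versus SDS lysates quantified by mass spectrometry, three biological replicates.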
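Wherever solubility in G1/S (NP-40 vs SDS abundance) is given: HeLa Kyoto cells arrested at G1/S by double thymidine block, proteins quantified by TMT10plex mass spectrometry in mild NP-40 versus SDS extracts, three biological replicates.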

Row | Substance | solubility in G1/S (log2) (HeLa Kyoto [1]) | solubility change mitosis (log2) (HeLa Kyoto [2])
1 | MNQPQRMAPVGTDKELSDLLDFSMMFPLPVTNGKGRPASLAGAQFGGSGLEDRPSSGSWGSGDQSSSSFDPSRTFSEGTHFTESHSSLSSSTFLGPGLGGKSGERGAYASFGRDAGVGGLTQAGFLSGELALNSPGPLSPSGMKGTSQYYPSYSGSSRRRAADGSLDTQPKKVRKVPPGLPSSVYPPSSGEDYGRDATAYPSAKTPSSTYPAPFYVADGSLHPSAELWSPPGQAGFGPMLGGGSSPLPLPPGSGPVGSSGSSSTFGGLHQHERMGYQLHGAEVNGGLPSASSFSSAPGATYGGVSSHTPPVSGADSLLGSRGTTAGSSGDALGKALASIYSPDHSSNNFSSSPSTPVGSPQGLAGTSQWPRAGAPGALSPSYDGGLHGLQSKIEDHLDEAIHVLRSHAVGTAGDMHTLLPGHGALASGFTGPMSLGGRHAGLVGGSHPEDGLAGSTSLMHNHAALPSQPGTLPDLSRPPDSYSGLGRAGATAAASEIKREEKEDEENTSAADHSEEEKKELKAPRARTSPDEDEDDLLPPEQKAEREKERRVANNARERLRVRDINEAFKELGRMCQLHLNSEKPQTKLLILHQAVSVILNLEQQVRERNLNPKAACLKRREEEKVSGVVGDPQMVLSAPHPGLSEAHNPAGHM [TCF3] | 0.291 | -0.0342
2 | MVKLIHTLADHGDDVNCCAFSFSLLATCSLDKTIRLYSLRDFTELPHSPLKFHTYAVHCCCFSPSGHILASCSTDGTTVLWNTENGQMLAVMEQPSGSPVRVCQFSPDSTCLASGAADGTVVLWNAQSYKLYRCGSVKDGSLAACAFSPNGSFFVTGSSCGDLTVWDDKMRCLHSEKAHDLGITCCDFSSQPVSDGEQGLQFFRLASCGQDCQVKIWIVSFTHILGFELKYKSTLSGHCAPVLACAFSHDGQMLVSGSVDKSVIVYDTNTENILHTLTQHTRYVTTCAFAPNTLLLATGSMDKTVNIWQFDLETLCQARRTEHQLKQFTEDWSEEDVSTWLCAQDLKDLVGIFKMNNIDGKELLNLTKESLADDLKIESLGLRSKVLRKIEELRTKVKSLSSGIPDEFICPITRELMKDPVIASDGYSYEKEAMENWISKKKRTSPMTNLVLPSAVLTPNRTLKMAINRWLETHQK [WDSUB1] | -0.0154 | -0.112
3 | MAAAFRKAAKSRQREHRERSQPGFRKHLGLLEKKKDYKLRADDYRKKQEYLKALRKKALEKNPDEFYYKMTRVKLQDGVHIIKETKEEVTPEQLKLMRTQDVKYIEMKRVAEAKKIERLKSELHLLDFQGKQQNKHVFFFDTKKEVEQFDVATHLQTAPELVDRVFNRPRIETLQKEKVKGVTNQTGLKRIAKERQKQYNCLTQRIEREKKLFVIAQKIQTRKDLMDKTQKVKVKKETVNSPAIYKFQSRRKR [UTP11L] | -2.71 | 1.5
4 | MAPALLLIPAALASFILAFGTGVEFVRFTSLRPLLGGIPESGGPDARQGWLAALQDRSILAPLAWDLGLLLLFVGQHSLMAAERVKAWTSRYFGVLQRSLYVACTALALQLVMRYWEPIPKGPVLWEARAEPWATWVPLLCFVLHVISWLLIFSILLVFDYAELMGLKQVYYHVLGLGEPLALKSPRALRLFSHLRHPVCVELLTVLWVVPTLGTDRLLLAFLLTLYLGLAHGLDQQDLRYLRAQLQRKLHLLSRPQDGEAE [NRM] | -0.275 | 0.167
5 | MATPGPVIPEVPFEPSKPPVIEGLSPTVYRNPESFKEKFVRKTRENPVVPIGCLATAAALTYGLYSFHRGNSQRSQLMMRTRIAAQGFTVAAILLGLAVTAMKSRP [HIGD2A] | -0.399 | 0.482
6 | MDVHDLFRRLGAGAKFDTRRFSADAARFQIGKRKYDFDSSEVLQGLDFFGNKKSVPGVCGASQTHQKPQNGEKKEESLTERKREQSKKKRKTMTSEIASQEEGATIQWMSSVEAKIEDKKVQRESKLTSGKLENLRKEKINFLRNKHKIHVQGTDLPDPIATFQQLDQEYKINSRLLQNILDAGFQMPTPIQMQAIPVMLHGRELLASAPTGSGKTLAFSIPILMQLKQPANKGFRALIISPTRELASQIHRELIKISEGTGFRIHMIHKAAVAAKKFGPKSSKKFDILVTTPNRLIYLLKQDPPGIDLASVEWLVVDESDKLFEDGKTGFRDQLASIFLACTSHKVRRAMFSATFAYDVEQWCKLNLDNVISVSIGARNSAVETVEQELLFVGSETGKLLAVRELVKKGFNPPVLVFVQSIERAKELFHELIYEGINVDVIHAERTQQQRDNTVHSFRAGKIWVLICTALLARGIDFKGVNLVINYDFPTSSVEYIHRIGRTGRAGNKGKAITFFTEDDKPLLRSVANVIQQAGCPVPEYIKGFQKLLSKQKKKMIKKPLERESISTTPKCFLEKAKDKQKKVTGQNSKKKVALEDKS [DDX52] | -1.37 | 1.04
7 | MEGRPPPEGRPPPRPRTGRAPRGRRRAVFAAVLHWSHITHLFENDRHFSHLSTLEREMAFRTEMGLYYSYFKTIVEAPSFLNGVWMIMNDKLTEYPLVINTLKRFNLYPEVILASWYRIYTKIMDLIGIQTKICWTVTRGEGLSPIESCEGLGDPACFYVAVIFILNGLMMALFFIYGTYLSGSRLGGLVTVLCFFFNHGECTRVMWTPPLRESFSYPFLVLQMLLVTHILRATKLYRGSLIALCISNVFFMLPWQFAQFVLLTQIASLFAVYVVGYIDICKLRKIIYIHMISLALCFVLMFGNSMLLTSYYASSLVIIWGILAMKPHFLKINVSELSLWVIQGCFWLFGTVILKYLTSKIFGIADDAHIGNLLTSKFFSYKDFDTLLYTCAAEFDFMEKETPLRYTKTLLLPVVLVVFVAIVRKIISDMWGVLAKQQTHVRKHQFDHGELVYHALQLLAYTALGILIMRLKLFLTPHMCVMASLICSRQLFGWLFCKVHPGAIVFAILAAMSIQGSANLQTQWNIVGEFSNLPQEELIEWIKYSTKPDAVFAGAMPTMASVKLSALRPIVNHPHYEDAGLRARTKIVYSMYSRKAAEEVKRELIKLKVNYYILEESWCVRRSKPGCSMPEIWDVEDPANAGKTPLCNLLVKDSKPHFTTVFQNSVYKVLEVVKE [DPY19L1] | -0.264 | 0.0231
8 | MPNFSGNWKIIRSENFEELLKVLGVNVMLRKIAVAAASKPAVEIKQEGDTFYIKTSTTVRTTEINFKVGEEFEEQTVDGRPCKSLVKWESENKMVCEQKLLKGEGPKTSWTRELTNDGELILTMTADDVVCTRVYVRE [CRABP2] | -0.0816 | -0.109
9 | MAGPPALPPPETAAAATTAAAASSSAASPHYQEWILDTIDSLRSRKARPDLERICRMVRRRHGPEPERTRAELEKLIQQRAVLRVSYKGSISYRNAARVQPPRRGATPPAPPRAPRGAPAAAAAAAPPPTPAPPPPPAPVAAAAPARAPRAAAAAATAPPSPGPAQPGPRAQRAAPLAAPPPAPAAPPAVAPPAGPRRAPPPAVAAREPPLPPPPQPPAPPQQQQPPPPQPQPPPEGGAVRAGGAARPVSLREVVRYLGGSGGAGGRLTRGRVQGLLEEEAAARGRLERTRLGALALPRGDRPGRAPPAASARPSRSKRGGEERVLEKEEEEDDDEDEDEEDDVSEGSEVPESDRPAGAQHHQLNGERGPQSAKERVKEWTPCGPHQGQDEGRGPAPGSGTRQVFSMAAMNKEGGTASVATGPDSPSPVPLPPGKPALPGADGTPFGCPPGRKEKPSDPVEWTVMDVVEYFTEAGFPEQATAFQEQEIDGKSLLLMQRTDVLTGLSIRLGPALKIYEHHIKVLQQGHFEDDDPDGFLG [SAMD1] | -0.144 | 0.323
10 | PTPN6 | 0.166 | 0.0101
11 | MPTWGARPASPDRFAVSAEAENKVREQQPHVERIFSVGVSVLPKDCPDNPHIWLQLEGPKENASRAKEYLKGLCSPELQDEIHYPPKLHCIFLGAQGFFLDCLAWSTSAHLVPRAPGSLMISGLTEAFVMAQSRVEELAERLSWDFTPGPSSGASQCTGVLRDFSALLQSPGDAHREALLQLPLAVQEELLSLVQEASSGQGPGALASWEGRSSALLGAQCQGVRAPPSDGRESLDTGSMGPGDCRGARGDTYAVEKEGGKQGGPREMDWGWKELPGEEAWEREVALRPQSVGGGARESAPLKGKALGKEEIALGGGGFCVHREPPGAHGSCHRAAQSRGASLLQRLHNGNASPPRVPSPPPAPEPPWHCGDRGDCGDRGDVGDRGDKQQGMARGRGPQWKRGARGGNLVTGTQRFKEALQDPFTLCLANVPGQPDLRHIVIDGSNVAMVHGLQHYFSSRGIAIAVQYFWDRGHRDITVFVPQWRFSKDAKVRESHFLQKLYSLSLLSLTPSRVMDGKRISSYDDRFMVKLAEETDGIIVSNDQFRDLAEESEKWMAIIRERLLPFTFVGNLFMVPDDPLGRNGPTLDEFLKKPARTQGSSKAQHPSRGFAEHGKQQQGREEEKGSGGIRKTRETERLRRQLLEVFWGQDHKVDFILQREPYCRDINQLSEALLSLNF [KHNYN] | 0.384 | -0.219
12 | MDILKSEILRKRQLVEDRNLLVENKKYFKRSELAKKEEEAYFERCGYKIQPKEEDQKPLTSSNPVLELELAEEKLPMTLSRQEVIRRLRERGEPIRLFGETDYDAFQRLRKIEILTPEVNKGLRNDLKAALDKIDQQYLNEIVGGQEPGEEDTQNDLKVHEENTTIEELEALGESLGKGDDHKDMDIITKFLKFLLGVWAKELNAREDYVKRSVQGKLNSATQKQTESYLRPLFRKLRKRNLPADIKESITDIIKFMLQREYVKANDAYLQMAIGNAPWPIGVTMVGIHARTGREKIFSKHVAHVLNDETQRKYIQGLKRLMTICQKHFPTDPSKCVEYNAL [PRPF18] | 0.178 | 0.09
13 | MEPKVAELKQKIEDTLCPFGFEVYPFQVAWYNELLPPAFHLPLPGPTLAFLVLSTPAMFDRALKPFLQSCHLRMLTDPVDQCVAYHLGRVRESLPELQIEIIADYEVHPNRRPKILAQTAAHVAGAAYYYQRQDVEADPWGNQRISGVCIHPRFGGWFAIRGVVLLPGIEVPDLPPRKPHDCVPTRADRIALLEGFNFHWRDWTYRDAVTPQERYSEEQKAYFSTPPAQRLALLGLAQPSEKPSSPSPDLPFTTPAPKKPGNPSRARSWLSPRVSPPASPGP [MMACHC] | 0.0435 | 0.0886
14 | MGLEDEQKMLTESGDPEEEEEEEEELVDPLTTVREQCEQLEKCVKARERLELCDERVSSRSHTEEDCTEELFDFLHARDHCVAHKLFNNLK [UQCRH] | -0.528 | 0.641
